The results in this text go back to PMC6901440, “Bcl-2 regulates pyroptosis and necroptosis by targeting BH3-like domains in GSDMD and MLKL” (Cell Death Discovery, 2019).

This test concerns the target T1, Bcl-2 (endogenous, THP-1 cells) (human (endogenous in THP-1), UniProt P10415 1-239).
T1 construct: Bcl-2 (B-cell lymphoma 2), endogenous in the human macrophage cell line THP-1; immunoprecipitated with anti-Bcl-2 antibody; also called B-cell lymphoma 2; source: endogenous, THP-1 lysate
Briefly: co-IP; endogenous proteins; Bcl-2 immunoprecipitated from THP-1 lysates; cells basal or LPS 50 ng/ml 5 h + nigericin 5 uM 30 min (Fig. 1b); PMA treated cells with or without TNFa 20 ng/ml, 100 nM Smac mimetic, 20 uM z-VAD-FMK for 3 h (Fig. 5d); lysis buffer 20 mM HEPES pH 7.4, 0.5% Triton X-100, 0.5% CHAPS, 10% glycerol; washed eight times. The note with it: partners not purified.

T1 sequence (P10415 whole entry): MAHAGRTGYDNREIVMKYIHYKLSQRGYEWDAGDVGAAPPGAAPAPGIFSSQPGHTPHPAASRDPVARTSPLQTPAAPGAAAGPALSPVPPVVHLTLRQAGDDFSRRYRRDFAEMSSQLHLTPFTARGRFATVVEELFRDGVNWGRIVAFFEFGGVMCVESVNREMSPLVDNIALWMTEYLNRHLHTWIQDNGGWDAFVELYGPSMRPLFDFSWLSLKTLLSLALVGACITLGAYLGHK

B1: gasdermin D (endogenous, THP-1 cells) (natural protein, human (endogenous in THP-1), UniProt P57764 1-484, looked up)
chain: MGSAFERVVRRVVQELDHGGEFIPVTSLQSSTGFQPYCLVVRKPSSSWFWKPRYKCVNLSIKDILEPDAAEPDVQRGRSFHFYDAMDGQIQGSVELAAPGQAKIAGGAAVSDSSSTSMNVYSLSVDPNTWQTLLHERHLRQPEHKVLQQLRSRGDNVYVVTEVLQTQKEVEVTRTHKREGSGRFSLPGATCLQGEGQGHLSQKKTVTIPSGSTLAFRVAQLVIDSDLDVLLFPDKKQRTFQPPATGHKRSTSEGAWPQLPSGLSMMRCLHNFLTDGVPAEGAFTEDFQGLRAEVETISKELELLDRELCQLLLEGLEGVLRDQLALRALEEALEQGQSLGPVEPLDGPAGAVLECLVLSSGMLVPELAIPVVYLLGALTMLSETQHKLLAEALESQTLLGPLELVGSLLEQSAPWQERSTMSLPPGLLGNSWGEGAPAWVLLDECGLELGEDTPHVCWEPQAQGRMCALYASLALLSGLSQEPH
notes: gasdermin D (GSDMD), endogenous in the human macrophage cell line THP-1; also called GSDMD; source: endogenous, THP-1 lysate
As for B1, the “fold change of GSDMD associated with Bcl-2 after LPS and nigericin against basal conditions” value turned out to be 2.4 fold.
